Reference: patent publication US20180155451A1 (published 2018)
Substitutions are numbered along the chain they refer to. Read-outs that look alike come from different tables or passages of the source.

What was measured:
Assay in all cases: SPR (Biacore), antibody captured on chip, FcgR extracellular domain as analyte
FcgRIa [1] = target: T1, FcgRIa (human, UniProt P12314 16-292)
T1 construct: extracellular domain; Expressed in FreeStyle293 cells and purified; used as analyte in Biacore; also called FcγRIa; FcγRI; not shown: His tag attached to the C terminus

FcgRIIa R [2] = target: T2, FcgRIIa R (human, UniProt P12318 34-217)
T2 construct: extracellular domain; also called FcγRIIa R; FcγRIIa type R; not shown: His tag attached to the C terminus
T2 sequence (looked up): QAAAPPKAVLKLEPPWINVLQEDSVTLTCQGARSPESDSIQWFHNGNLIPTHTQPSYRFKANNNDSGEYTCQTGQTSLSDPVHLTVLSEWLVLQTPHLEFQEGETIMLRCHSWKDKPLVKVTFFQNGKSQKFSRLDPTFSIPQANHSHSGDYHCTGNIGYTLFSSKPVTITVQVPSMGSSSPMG

FcgRIIb [3] = target: T3, FcgRIIb (human, UniProt P31994 43-217)
T3 construct: extracellular domain; Expressed in FreeStyle293 cells and purified; used as analyte in Biacore; also called FcγRIIb; CD32B; not shown: His tag attached to the C terminus
T3 sequence (looked up): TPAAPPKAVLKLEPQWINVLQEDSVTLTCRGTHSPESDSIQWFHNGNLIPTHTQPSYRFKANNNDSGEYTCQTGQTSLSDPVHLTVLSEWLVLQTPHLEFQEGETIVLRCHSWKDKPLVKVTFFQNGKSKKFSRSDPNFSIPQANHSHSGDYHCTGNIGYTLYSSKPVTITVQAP

FcgRIa [4] = target: T1, FcgRIa; remark: listed apart in the source
Experimental: (§1) Analysis of interaction between obj ective antibody and the FcγR was carried out using Biacore T100 (GE Healthcare), Biacore T200, Biacore A100, and Biacore 4000. HBS-EP+ (GE Healthcare) was used as the running buffer, and the measurement temperature was set to 25° C. Chips produced by immobilizing the antigen peptide by the amine coupling method to a Series S sensor Chip CM5 (GE Healthcare), chips produced by allowing preliminarily biotinylated antigen peptides to interact with and immobilize onto a Series S Sensor Chip SA (certified) (GE Healthcare), chips produced by immobilizing Protein L (ACTIGEN, BioVision) to Series S Sencor Chip CM5 (GE Healthcare), or chips produced by immobilizing Protein A/G (Thermo Scientific) to Series S Sencor Chip CM5 (GE Healthcare) were used. Antibodies of interest were captured onto these chips, and allowed to interact to each FcγR diluted with running buffer. To regenerate and repeatedly use the chip, the antibodies captured onto the chip were washed off by reacting 10 mM glycine-HCl, pH 1.5.

FcgRIIIa F = target: T4, FcgRIIIa F (human, UniProt P08637 17-208)
T4 construct: extracellular domain; also called FcγRIIIa F; not shown: His tag attached to the C terminus
Experimental: as §1

FcgRIIIa V = target: T5, FcgRIIIa V (human, UniProt P08637 17-208)
T5 construct: extracellular domain; also called FcγRIIIa V; not shown: His tag attached to the C terminus
Experimental: as §1

FcgRIIa R [5] = target: T2, FcgRIIa R; remark: listed apart in the source
Experimental: as §1

FcgRIIb [6] = target: T3, FcgRIIb; remark: listed apart in the source
Experimental: as §1

FcgRIIa H = target: T6, FcgRIIa H (human, UniProt P12318 34-217)
T6 construct: extracellular domain; also called FcγRIIa H; FcγRIIa type H; not shown: His tag attached to the C terminus
T6 sequence (looked up): T2 sequence (looked up) with R134H
Experimental: as §1

T1 sequence (P12314 16-292): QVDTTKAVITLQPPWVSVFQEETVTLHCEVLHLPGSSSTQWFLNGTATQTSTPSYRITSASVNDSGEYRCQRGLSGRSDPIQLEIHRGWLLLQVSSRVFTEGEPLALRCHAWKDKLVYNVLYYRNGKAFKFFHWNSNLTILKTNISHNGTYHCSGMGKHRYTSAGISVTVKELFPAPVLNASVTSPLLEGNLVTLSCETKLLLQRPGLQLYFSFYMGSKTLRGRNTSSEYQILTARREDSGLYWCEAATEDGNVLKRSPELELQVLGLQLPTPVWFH
T4 sequence (P08637 17-208): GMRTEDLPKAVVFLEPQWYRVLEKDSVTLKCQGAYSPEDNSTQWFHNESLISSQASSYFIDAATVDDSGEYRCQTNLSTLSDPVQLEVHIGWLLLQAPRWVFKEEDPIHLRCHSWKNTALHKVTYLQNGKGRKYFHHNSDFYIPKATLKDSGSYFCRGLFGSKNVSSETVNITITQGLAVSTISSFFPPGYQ
T5 sequence (P08637 17-208 F176V limits assumed): as the sequence (P08637 17-208) above, with F160V counted along it

Kd (FcgRIa [1]): 0.43 nM | Kd (FcgRIIa R [2]): 490 nM | Kd (FcgRIIb [3]): 2600 nM | Kd (FcgRIa [4]): 0.43 nM | Kd (FcgRIIIa F): 79 nM | Kd (FcgRIIIa V): 6.9 nM | Kd (FcgRIIa R [5]): 490 nM | Kd (FcgRIIb [6]): 2600 nM | Kd (FcgRIIa H): 780 nM
B1: H240-afucosyl_G1d/L73-k0 (antibody, human IgG1, kappa)
heavy: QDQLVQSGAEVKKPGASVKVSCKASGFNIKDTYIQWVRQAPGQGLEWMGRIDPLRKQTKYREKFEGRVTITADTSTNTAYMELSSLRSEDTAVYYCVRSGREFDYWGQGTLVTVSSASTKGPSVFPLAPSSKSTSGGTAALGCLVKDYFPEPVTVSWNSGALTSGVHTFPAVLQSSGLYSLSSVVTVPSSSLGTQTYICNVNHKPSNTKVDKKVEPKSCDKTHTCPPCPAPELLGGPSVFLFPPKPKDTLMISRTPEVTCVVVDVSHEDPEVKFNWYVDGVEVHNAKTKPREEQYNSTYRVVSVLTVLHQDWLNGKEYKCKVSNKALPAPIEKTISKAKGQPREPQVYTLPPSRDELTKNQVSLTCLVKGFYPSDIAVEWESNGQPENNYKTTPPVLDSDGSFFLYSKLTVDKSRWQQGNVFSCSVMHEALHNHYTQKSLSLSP
light: DIQMTQSPSSLSASVGDRVTITCRASQDIHKYIAWYQQKPGQAPRLLIQYTSTLQPGVPSRFSGSGSGTDYTFTISSLQPEDIATYYCLQYEQLRTFGGGTKVEIKRTVAAPSVFIFPPSDEQLKSGTASVVCLLNNFYPREAKVQWKVDNALQSGNSQESVTEQDSKDSTYSLSSTLTLSKADYEKHKVYACEVTHQGLSSPVTKSFNRGEC
modifications: fucose removed from the sugar chain (afucosylated); amino acid sequence same as H240-G1d
notes: Anti-EREG IgG1 obtained by afucosylating H240-G1d/L73-k0; also called afucosylated antibody
